Patent US9575076

Legend:
[1] = molecular target: Thyroid Stimulating Hormone (TSH) (UniProt P01215); test: FRET competition on Alexa488-labelled antigen; competitor BHQ-labelled ME130
[2] = molecular target: Thyroid Stimulating Hormone (TSH) (UniProt P01215); test: i-STAT sandwich cartridge with TSH; capture beads TSH Ab 544, detection conjugate 5409; also: test concentration or dose not given here
[3] = molecular target: Thyroid Stimulating Hormone (TSH) (UniProt P01215); test: FRET competition on Alexa488-labelled antigen; competitor BHQ-labelled 414B
[4] = molecular target: Thyroid Stimulating Hormone (TSH) (UniProt P01215); test: FRET competition on Alexa488-labelled antigen; competitor BHQ-labelled T25C
[5] = molecular target: Thyroid Stimulating Hormone (TSH) (UniProt P01215); test: FRET competition on Alexa488-labelled antigen; competitor BHQ-labelled TSH Ab 544
[6] = molecular target: Thyroid Stimulating Hormone (TSH) (UniProt P01215); test: i-STAT sandwich cartridge with TSH; capture beads TSH Ab 544, detection conjugate M4; also: test concentration or dose not given here
[7] = molecular target: Thyroid Stimulating Hormone (TSH) (UniProt P01215); test: FRET quenching titration, BHQ-10 antibody and Alexa Fluor 488 antigen
[8] = molecular target: Follicle Stimulating Hormone (FSH) (UniProt P01215); test: as above
Luteinizing Hormone (LH) [9] = molecular target: Luteinizing Hormone (LH) (UniProt P01215); test: as above
[10] = molecular target: Chorionic Gonadotropin (CG) (UniProt P01215); test: as above
[11] = molecular target: Thyroid Stimulating Hormone (TSH) (UniProt P01215); test: FRET competition on Alexa488-labelled antigen; competitor BHQ-labelled M4
[12] = molecular target: Thyroid Stimulating Hormone (TSH) (UniProt P01215); test: i-STAT sandwich cartridge with TSH; capture beads TSH Ab 544, detection conjugate T25C
[13] = molecular target: Thyroid Stimulating Hormone (TSH) (UniProt P01215); test: FRET competition on Alexa488-labelled antigen; competitor BHQ-labelled 5409
[14] = molecular target: Thyroid Stimulating Hormone (TSH) (UniProt P01215); test: i-STAT sandwich cartridge with TSH; capture beads TSH Ab 544, detection conjugate 414B; also: test concentration or dose not given here
[15] = molecular target: Follicle Stimulating Hormone (FSH) (UniProt P01215); test: i-STAT sandwich cartridge, 0.4 mIU/L TSH plus FSH, signal gain over TSH alone; capture 94544, detection 414B
[16] = molecular target: Thyroid Stimulating Hormone (TSH) (UniProt P01215); test: i-STAT sandwich cartridge with TSH; capture beads TSH Ab 544, detection conjugate ME130; also: test concentration or dose not given here
Luteinizing Hormone (LH) [17] = molecular target: Luteinizing Hormone (LH) (UniProt P01215); test: i-STAT sandwich cartridge, 0.4 mIU/L TSH plus LH, signal gain over TSH alone; capture 94544, detection 414B
[18] = molecular target: Chorionic Gonadotropin (CG) (UniProt P01215); test: i-STAT sandwich cartridge, 0.4 mIU/L TSH plus CG, signal gain over TSH alone; capture 94544, detection 414B

relative fluorescence [1]: 0.72 normalized
electrochemical current [2]: 7.98 nA
relative fluorescence [3]: 0.89 normalized
relative fluorescence [4]: 0.71 normalized
relative fluorescence [5]: 1 normalized
electrochemical current [6]: 0.11 nA
Kd [7]: 1.31 nM
Kd [8]: 1000 nM
Kd (Luteinizing Hormone (LH) [9]): 1000 nM
Kd [10]: 210 nM
relative fluorescence [11]: 0.92 normalized
electrochemical current [12]: 22.4 nA
relative fluorescence [13]: 0.96 normalized
electrochemical current [14]: 25 nA
FSH CR (%) [15]: 7.15%
electrochemical current [16]: 34.9 nA
LH CR (%) (Luteinizing Hormone (LH) [17]): 11.8%
CG CR (%) [18]: 117%
Substance: TSH Ab 544 (Abbott Diagnostics Division) (antibody)
